US7838495B2, “Compositions and methods of use of EPB1, and ErbB3 binding protein” (University of Maryland, Baltimore, priority 2007, dated 2010)

Experiments:
[1] = tested on: Androgen Regulated Genes; experiment: Microarray analysis of EBP1 and vector transfected C81 cells; format: cell-based, human; conditions: EBP1 transfected C81 cells vs vector control
Procedure: Microarray Analysis and Bioinformatics. RNA was prepared using the Trizol Reagent as previously described (8). Microarray processing and data analysis was performed at Genome Explorations (Nashville, Tenn.). U133A oligonucleotide arrays (Affymetrix) containing ˜33,000 full length annotated genes together with additional probe sets designed to represent EST sequences were used for the analysis. Only genes with a minimum expression level of 500 were included in this analysis. […] Oncomine analyses were performed by using Oncomine 3.0 (www.oncomine.org). Real Time Quantitative Reverse-Transcription PCR. Both cell culture samples and a commercial panel of cDNAs from normal prostate and prostate tumors (TissueScan, Origene, Rockville, Md.) were examined. The method of Nakanishi et al. (15) was used as previously described. Real-time quantitative RT-PCR was performed on the LightCycler® (Roche) platform. The following forward and reverse primers were selected using Primer Express software and synthesized by the Core Laboratory of University of Maryland School of Medicine: Ebp1, sense: 5′-GCA CGC CAA TAG AAG G-3′ (SEQ ID NO: 16) and antisense: 5′-GTA AAC GGC ATG GCA TC-3′ (SEQ ID NO: 17) kallikrein-2 sense: 5′-CAT CCA GTC TCG GAT TG-3′ (SEQ ID NO: 18) and antisense: 5′-CTC ATA TTG TAG AGC GGG T-3′ (SEQ ID NO: 19), TSPY, sense: 5′-CAGGGCTTCTCATTCCACTC-3′ (SEQ ID NO: 20) and antisense: 5′-CCATCATATTCAACTCAACAA CTGG-3′ (16; SEQ ID NO: 21), AGR2, sense: 5′-ATTGGCAGAGCAGTTTCTCC-3′ (SEQ ID NO: 22) and antisense, 5′-GAGCTGTATCTGCAGGTTCGT (17; SEQ ID NO: 23) 13-Actin, sense: 5′-GCTATCCAGGCTGTGCTATC-3′ (SEQ ID NO: 24) and antisense 5′-TGT CAC GCA CGA TTT CC-3′ (SEQ ID NO: 25). A SYBR®Green PCR Kit was used as per the manufacturer's instructions (Applied Biosystems, Foster City, Calif.) and the analyses were performed in duplicate or triplicate.

[2] = tested on: C81 cells; experiment: C81 xenografts in female athymic nude mice; format: in vivo
Procedure: FIG. 8A-C. Manipulation of EBP1 expression affects growth of prostate cancer cells in vivo. A. Ectopic expression of EBP1 reduces the growth of androgen independent cells in athymic female mice C81 vector or EBP1 transfected cells were injected subcutaneously into female athymic mice. Tumor development with time is shown (n=10 animals, 20 sites per group). B. Tumor volumes and growth rate. Tumor volumes were calculated as described in “Materials and Methods”. Each point represents the mean±SE (10 mice per group injected at 20 sites). C. Elimination of EBP1 expression enhances growth of androgen dependent LNCaP cells in vivo. A16 lentivirus control or C13 EBP1 shRNA transduced LNCaP cells were injected subcutaneously into female athymic mice. Tumor volumes were calculated as described in “Materials and Methods”. Each point represents the mean±SE (10 mice per group injected at 20 sites). * indicates p 0.04.
Western Blot Analysis. Western blot analysis was performed as previously described (19). The Ebp1 antibody was from Upstate (Lake Placid, N.Y.), the polyclonal antibody to actin from Sigma, the AKT and phospho AKT antibodies from Cell Signaling (Beverly, Mass.) and the AGR2 antibody was previously described (20) Cell Growth Assays Cell growth measurement in complete media was performed as described using a hemocytometer (21). For soft agar growth assays, increasing concentrations of cells (as indicated) were plated in 35 mm Petri dishes in 0.3% agar in complete media and colonies were counted after 10 days of incubation (21). For studies assessing the effect of DHT, HRG or chemotherapeutic agents on cell growth, cells (5×10^3) were plated in 96 well plates in complete media. After a 24-hour attachment period, the medium was replaced with steroid free medium [phenol red free RPMI 1640 and 5% charcoal stripped fetal bovine serum (Sigma)]. After 48 hours of steroid depletion, cells were refed with fresh steroid reduced medium with or without the indicated concentrations of DHT, bicalutamide (Casodex) (10 μM), HRG or the chemotherapeutic drugs at the concentrations indicated. Relative cell growth was determined using a Promega Proliferation Reagent (Promega, Madison Wis.) as per manufacturer's instructions with absorbance being read at […] using a Dynex plate reader. Luciferase Reporter Assays Cells (5×10^4) were plated in 12 well plates in complete media. When cells reached 50-60% confluence, they were transfected using the FuGENE®-6 Reagent (Roche, Indianapolis, Ind.) according to the manufacturer's instructions. Cells were transfected with 0.5 μg of an MMTV-luciferase reporter plasmid and 5 ng of a TK Renilla plasmid (Promega, Madison, Wis.) as an internal control. Complete medium was replaced 24 h after transfection with phenol red free RPMI 1640 with CSS with or without R1881 (10^−8M). Luciferase activity was determined using the Promega Dual luciferase assay kit as described by the manufacturer. In Vivo Studies in Athymic Mice Female nude athymic NCr-nu/nu mice, 4-6 weeks of age, were purchased from the National Cancer Institute (Frederick, Md.). Animals were housed in a pathogen free environment under controlled conditions of light and humidity and received food and water ad libitum. […] Tumors were measured with calipers. Tumor volumes were calculated by the formula width^2×length/2 […]. Mean tumor volume±S.D. were calculated and plotted against time. […] Statistical Analysis Results of growth assays were analyzed using a two-sided Students t-test. […]

B1: EBP1: ErbB3 binding protein (SEQ ID NO: 2), AR corepressor, here ectopically expressed in cancer cells by stable transfection of an expression plasmid (protein, listed as Homo sapiens)
chain: MSGEDEQQEQTIAEDLVVTKYKMGGDIANRVLRSLVEASSSGVSVLSLCEKGDAMIMEETGKIFKKEKEMKKGIAFPTSISVNNCVCHFSPLKSDQDYILKEGDLVKIDLGVHVDGFIANVAHTFVVDVAQGTQVTGRKADVIKAAHLCAEAALRLVKPGNQNTQVTEAWNKVAHSFNCTPIEGMLSHQLKQHVIDGEKTIIQNPTDQQKKDHEKAEFEVHEVYAVDVLVSSGEGKAKDAGQRTTIYKRDPSKQYGLKMKTSRAFFSEVERRFDAMPFTLRAFEDEKKARMGVVECAKHELLQPFNVLYEKEGEFVAQFKFTVLLMPNGPMRITSGPFEPDLYKSEMEVQDAELKALLQSSASRKTQKKKKKKASKTAENATSGETLEENEAGD
modifications: FLAG tag
Fold Decrease, AGR2 [1]: 7.1 | Fold Decrease, Androgen regulated serine protease TMPRSS2 [1]: 4.0 | Fold Decrease, Prostate Cancer overexpressed POV [1]: 5 | Fold Decrease, Prostate Differentiation Factor mRNA [1]: 5.4 | Fold Decrease, Prostate Specific Antigen [1]: 5.5 | Fold Decrease, Prostatic Kallikrein 2 [1]: 5.4 | Fold Decrease, TSPY [1]: 9.5 | sites that developed tumors at the end of both studies ([2]; C81 EBP1 transfectants (vector 25/26), p=0.00001): 10/26 | inoculation sites with tumors on Day 28 post transplantation ([2]; C81 EBP1 transfectants (vector controls 24/26)): 1/26 | day on which the first tumor was observed ([2]; C81 EBP1 transfectants s.c. in female nude mice (vector day 8)): 20 days | average tumor volume at the end of the first study ([2]; C81 EBP1 transfectants, 6 sites per group, Mean+S.E. (vector 998±206), p=0.01): 104±70 mm^3 | average tumor volume, second experiment ([2]; C81 EBP1 transfectants, 20 sites per group (vector 561±47), p=0.0001, in mm³ (unit assumed)): 206±54
